Legend:
[1] = molecular target: trypsin; test: monoclonal phage TRF
[2] = molecular target: trypsin; test: Fab TRF, 10 ug/mL Fab
[3] = molecular target: trypsin; test: Fab TRF, 0.6 ug/mL Fab
[4] = molecular target: trypsin; test: Fab TRF, 2.4 ug/mL Fab
[5] = molecular target: β-galactosidase; test: monoclonal phage TRF
β-galactosidase, sequence (P00722 2-1024): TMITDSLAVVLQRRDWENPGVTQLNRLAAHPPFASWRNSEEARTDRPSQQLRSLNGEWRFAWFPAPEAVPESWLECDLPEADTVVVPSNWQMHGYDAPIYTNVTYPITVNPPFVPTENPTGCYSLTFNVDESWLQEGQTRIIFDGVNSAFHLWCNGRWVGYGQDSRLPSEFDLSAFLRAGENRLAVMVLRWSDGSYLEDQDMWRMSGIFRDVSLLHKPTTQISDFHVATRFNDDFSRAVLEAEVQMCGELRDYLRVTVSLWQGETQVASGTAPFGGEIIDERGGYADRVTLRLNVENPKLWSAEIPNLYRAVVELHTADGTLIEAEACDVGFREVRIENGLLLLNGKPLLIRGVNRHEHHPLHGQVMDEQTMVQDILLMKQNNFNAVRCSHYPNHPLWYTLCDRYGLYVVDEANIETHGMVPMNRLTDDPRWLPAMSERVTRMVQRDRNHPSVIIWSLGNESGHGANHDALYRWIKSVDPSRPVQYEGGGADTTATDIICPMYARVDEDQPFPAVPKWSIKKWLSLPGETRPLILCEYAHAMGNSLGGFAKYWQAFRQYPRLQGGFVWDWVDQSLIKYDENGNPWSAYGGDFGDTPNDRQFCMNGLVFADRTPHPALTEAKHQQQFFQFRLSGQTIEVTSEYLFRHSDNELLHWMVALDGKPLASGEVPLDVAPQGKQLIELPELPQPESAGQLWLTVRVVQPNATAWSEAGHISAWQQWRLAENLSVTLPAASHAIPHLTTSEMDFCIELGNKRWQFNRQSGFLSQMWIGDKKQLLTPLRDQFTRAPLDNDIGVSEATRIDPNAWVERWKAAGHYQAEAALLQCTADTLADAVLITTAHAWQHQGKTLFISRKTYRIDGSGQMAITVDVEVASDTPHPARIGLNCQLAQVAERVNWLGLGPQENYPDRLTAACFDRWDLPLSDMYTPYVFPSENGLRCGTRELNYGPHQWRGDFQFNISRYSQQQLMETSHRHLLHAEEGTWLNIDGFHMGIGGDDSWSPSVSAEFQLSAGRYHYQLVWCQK

Row | Tryspin binding signal (FU) [1] [FU] | TRF signal [2] | TRF signal [3] | TRF signal [4] | TRF signal [5] | Binder
1 | 20200 | 55600 | 2390 | 16600 | – | KB_A01 (scFv, V domains shown) VH: EVQLVESGGGLVRPGGSLRLSCAASGFTFSSYAMSWVRQAPGKGLEWVSAISGSGGSTYYADSVKGRFTISRDNTKNSLYLQMTSLRADDTAFYYCVKDFGPGYGTGWFDYWGPGTLVTVSS VL: YLNWYQQKPGKAPKLLIYAAEVCPRILMRCKQDSDCLAGCVCGPNGFCGGTSGVPSRFSGSRSGTEFTLTISSLQPEDFATYYCQKVDDYPLTFGGGTKVEIKR
2 | 116000 | 56600 | 2340 | 15900 | – | KB_B02 (scFv, V domains shown) VH: EVQLVESGGGLVRPGGSLRLSCAASGFTFSSYAMSWVRQAPGKGLEWVSAISGSGGSTYYADSVKGRFTISRDNTKNSLYLQMTSLRADDTAFYYCVKDFGPGYGTGWFDYWGPGTLVTVSS VL: AVNWYQQLPGKAPKLLIYAAVGCPRILMRCKQDSDCLAGCVCGPNGFCGTGSGIPERFSGSKSGNTASLTISGLQAEDEGDYYCAAWDDSLSGPVFGGGTKLTVLG
3 | 16400 | 212000 | 48900 | 141000 | – | KB_A11 (scFv, V domains shown) VH: EVQLVESGGGLVRPGGSLRLSCAASGFTFSSYAMSWVRQAPGKGLEWVSAISGSGGSTYYADSVKGRFTISRDNTKNSLYLQMTSLRADDTAFYYCVKDFGPGYGTGWFDYWGPGTLVTVSS VL: YLNWYQQKPGKAPKLLIYAAEICPRILMRCKQDSDCLAGCVCGPNGFCGPSSGIPARFSGSGYGTDFTLTINNIESEDAAYYFCLQHDNFPYTFGQGTKVEIKR
4 | 57700 | 161000 | 21000 | 84100 | – | KB_A09 (scFv, V domains shown) VH: EVQLVESGGGLVRPGGSLRLSCAASGFTFSSYAMSWVRQAPGKGLEWVSAISGSGGSTYYADSVKGRFTISRDNTKNSLYLQMTSLRADDTAFYYCVKDFGPGYGTGWFDYWGPGTLVTVSS VL: AVNWYQQLPGKAPKLLIYAAERCPRILMRCKQDSDCLAGCVCGPNGFCGTPSGVPDRFSGSIDTFSNSASLTISGLKTEDEADYYCQSYDSSHHWVFGGGTKLTVLG
5 | 89400 | 289000 | 46800 | 205000 | – | KB_C09 (scFv, V domains shown) VH: EVQLVESGGGLVRPGGSLRLSCAASGFTFSSYAMSWVRQAPGKGLEWVSAISGSGGSTYYADSVKGRFTISRDNTKNSLYLQMTSLRADDTAFYYCVKDFGPGYGTGWFDYWGPGTLVTVSS VL: AVNWYQQLPGKAPKLLIYAAGRCPRILMRCKQDSDCLAGCVCGPNGFCGGGSGVPDRFSGSIDSSSNSASLTISGLRAEDEADYYCQSYDSSNHWVFGGGTKLTVLG
6 | 10300 | – | – | – | – | KB_B11 (scFv, V domains shown) VH: EVQLVESGGGLVRPGGSLRLSCAASGFTFSSYAMSWVRQAPGKGLEWVSAISGSGGSTYYADSVKGRFTISRDNTKNSLYLQMTSLRADDTAFYYCVKDFGPGYGTGWFDYWGPGTLVTVSS VL: TQPPSVSEAPRQRVTITCGSRPCPRILMRCKQDSDCLAGCVCGPNGFCGSHNWYQQLPGSSPTTVIYEDNQRPSGVPDRFSGSIDRSSNSASLTISGLKTEDEADYYCQSYDSSNHRVVFGGGTKLTVLG
7 | 121000 | 218000 | 46700 | 65400 | – | KB_A05 (scFv, V domains shown) VH: EVQLVESGGGLVRPGGSLRLSCAASGFTFSSYAMSWVRQAPGKGLEWVSAISGSGGSTYYADSVKGRFTISRDNTKNSLYLQMTSLRADDTAFYYCVKDFGPGYGTGWFDYWGPGTLVTVSS VL: AVNWYQQLPGKAPKLLIYAADKCPRILMRCKQDSDCLAGCVCGPNGFCGGGSGIPERFSGSKSGTSASLAISGLRSEDEADYYCATWDDNLNGVVFGGGTKLTVLG
8 | 9270 | – | – | – | – | KB_B10 (scFv, V domains shown) VH: EVQLVESGGGLVRPGGSLRLSCAASGFTFSSYAMSWVRQAPGKGLEWVSAISGSGGSTYYADSVKGRFTISRDNTKNSLYLQMTSLRADDTAFYYCVKDFGPGYGTGWFDYWGPGTLVTVSS VL: QSVLTQLPSVSEAPRQRVTITCGRAMCPRILMRCKQDSDCLAGCVCGPNGFCGTGNWYQQHPGKAPKLIIFDVSKRPSGVPDRFSASKSGNTASLTISGLQAEDEADYYCNSYTSSNTWVFGGGTQLTVLG
9 | – | – | – | – | 476000 | KB_A12_B-gal_F02 (scFv, V domains shown) VH: EVQLVESGGGLVRPGGSLRLSCAASGFTFSSYAMSWVRQAPGKGLEWVSAISGSGGSTYYADSVKGRFTISRDNTKNSLYLQMTSLRADDTAFYYCVKDFGPGYGTGWFDYWGPGTLVTVSS VL: AVNWYQQLPGKAPKLLIYAAGRCRTTSTIRRRCKQDSDCLAGCVCGPNGFCGANSGVSDRFSAAKSGTSASLAINGLRSEDEADYYCAAWDDSLNGYVFGTGTKLTVLG
10 | 43300 | 276000 | 153000 | 247000 | – | KB_C07 (scFv, V domains shown) VH: EVQLVESGGGLVRPGGSLRLSCAASGFTFSSYAMSWVRQAPGKGLEWVSAISGSGGSTYYADSVKGRFTISRDNTKNSLYLQMTSLRADDTAFYYCVKDFGPGYGTGWFDYWGPGTLVTVSS VL: AVNWYQQLPGKAPKLLIYAAVGCPRILMRCKQDSDCLAGCVCGPNGFCGSASGVSDRFSGSKSGTSASLAISGLRSEDEADYYCASWDDSLRGYVFGTGTKVTVLG
11 | 57700 | 257000 | 54800 | 153000 | – | KB_B01 (scFv, V domains shown) VH: EVQLVESGGGLVRPGGSLRLSCAASGFTFSSYAMSWVRQAPGKGLEWVSAISGSGGSTYYADSVKGRFTISRDNTKNSLYLQMTSLRADDTAFYYCVKDFGPGYGTGWFDYWGPGTLVTVSS VL: AVNWYQQLPGKAPKLLIYAAAGCPRILMRCKQDSDCLAGCVCGPNGFCGTRSGVSDRFSGSKSGTSASLAISGLRSEDEADYYCAAWDDSLRAYVFGTGTKLTVLG
12 | 76800 | 183000 | 51100 | 131000 | – | KB_C08 (scFv, V domains shown) VH: EVQLVESGGGLVRPGGSLRLSCAASGFTFSSYAMSWVRQAPGKGLEWVSAISGSGGSTYYADSVKGRFTISRDNTKNSLYLQMTSLRADDTAFYYCVKDFGPGYGTGWFDYWGPGTLVTVSS VL: AVNWYQQLPGKAPKLLIYAAAVCPRILMRCKQDSDCLAGCVCGPNGFCGTRSGIPERFSGSKSGTSAFLAISGLRSEDEADYYCAAWDDSLSGVVFGGGTKLTVLG
13 | – | – | – | – | 529000 | KB_A12_B-gal_G05 (scFv, V domains shown) VH: EVQLVESGGGLVRPGGSLRLSCAASGFTFSSYAMSWVRQAPGKGLEWVSAISGSGGSTYYADSVKGRFTISRDNTKNSLYLQMTSLRADDTAFYYCVKDFGPGYGTGWFDYWGPGTLVTVSS VL: AVNWYQQLPGKAPKLLIYAAGRCLDTVNLRRRCKQDSDCLAGCVCGPNGFCGANSGVSDRFSAAKSGTSASLAINGLRSEDEADYYCAAWDDSLNGYVFGTGTKLTVLG
14 | 38800 | 68700 | 14600 | 71900 | – | KB_A10 (scFv, V domains shown) VH: EVQLVESGGGLVRPGGSLRLSCAASGFTFSSYAMSWVRQAPGKGLEWVSAISGSGGSTYYADSVKGRFTISRDNTKNSLYLQMTSLRADDTAFYYCVKDFGPGYGTGWFDYWGPGTLVTVSS VL: AVNWYQQLPGKAPKLLIYAAGGCPRILMRCKQDSDCLAGCVCGPNGFCGSNSGVPDRFSGSKSGNTASLTISGLQSEDEADYYCAAWDDSLSGVVFGGGTQLTVLG
15 | 24400 | 242000 | 108000 | 212000 | – | KB_A06 (scFv, V domains shown) VH: EVQLVESGGGLVRPGGSLRLSCAASGFTFSSYAMSWVRQAPGKGLEWVSAISGSGGSTYYADSVKGRFTISRDNTKNSLYLQMTSLRADDTAFYYCVKDFGPGYGTGWFDYWGPGTLVTVSS VL: AVNWYQQLPGKAPKLLIYAAVRCPRILMRCKQDSDCLAGCVCGPNGFCGTPSGIPERFSGSIDRSTNSASLTISGLKTEDEADYYCQSYDSSNLNWVFGGGTKLTVLG
16 | 183000 | 255000 | 93800 | 221000 | – | KB_A02 (scFv, V domains shown) VH: EVQLVESGGGLVRPGGSLRLSCAASGFTFSSYAMSWVRQAPGKGLEWVSAISGSGGSTYYADSVKGRFTISRDNTKNSLYLQMTSLRADDTAFYYCVKDFGPGYGTGWFDYWGPGTLVTVSS VL: AVNWYQQLPGKAPKLLIYAAAKCPRILMRCKQDSDCLAGCVCGPNGFCGGASGVSDRFSGSIDSSSNSASLTISGLKPEDEGDYYCQSYDSSNRWVFGGGTKVTVLG
17 | 28700 | – | – | – | – | KB_A03 (scFv, V domains shown) VH: EVQLVESGGGLVRPGGSLRLSCAASGFTFSSYAMSWVRQAPGKGLEWVSAISGSGGSTYYADSVKGRFTISRDNTKNSLYLQMTSLRADDTAFYYCVKDFGPGYGTGWFDYWGPGTLVTVSS VL: AVNWYQQLPGKAPKLLINAADRCPRILMRCKQDSDCLAGCVCGPNGFCGTNSGVPDRFSGSSSGNTASLTITGAQAEDEADYYCNSRDSSGNNWVFGGGTKVTVLG
18 | 17400 | – | – | – | – | KB_B12 (scFv, V domains shown) VH: EVQLVESGGGLVRPGGSLRLSCAASGFTFSSYAMSWVRQAPGKGLEWVSAISGSGGSTYYADSVKGRFTISRDNTKNSLYLQMTSLRADDTAFYYCVKDFGPGYGTGWFDYWGPGTLVTVSS VL: TQPPSVSEAPRQRVTITCGERPCPRILMRCKQDSDCLAGCVCGPNGFCGANNWYQQLPGSSPTTVIYEDNQRPSGVPDRFSGSIDSSSNSASLTISGLKTEDEADYYCQSYDSSNQVFGGGTKVTVLG
19 | 119000 | 238000 | 41700 | 146000 | – | KB_C10 (scFv, V domains shown) VH: EVQLVESGGGLVRPGGSLRLSCAASGFTFSSYAMSWVRQAPGKGLEWVSAISGSGGSTYYADSVKGRFTISRDNTKNSLYLQMTSLRADDTAFYYCVKDFGPGYGTGWFDYWGPGTLVTVSS VL: AVNWYQQLPGKAPKLLIYAAGPCPRILMRCKQDSDCLAGCVCGPNGFCGADSGVSDRFSGSKSGTSASLAITGLQAEDEGDYYCAAWDDSLNGLVFGGGTKVTVLG
